# Test results published in publication PMC2739586 (Journal of molecular biology, 2009).
# B1: Miner1 (C92S), soluble region of human Miner1 (amino acids 57-135) (domain or fragment)
# chain: GSHMRPFLPKKKQQKDSLINLKIQKENPKVVNEINIEDLSLTKAAYCRCWRSKTFPACDGSHNKHNELTGDNVGPLILKKKEV
# Biological target: the molecule itself
# Experiment: crystal structure
protein,measurement,value
B1,stoichiometry N,2
